According to patent US8728478:
Several values for one entry are separate records, joined by “and”; a condition that tells them apart may be missing. Identical values can stand only once.

How the values were obtained:
[1] = target: Escherichia coli heat-stable enterotoxin A (STa), purified from a bovine ETEC K99+ isolate (Escherichia coli (ETEC isolated from a diarrheic neonatal calf)); test: indirect ELISA on plate-bound STa, serum dilution 10^-6, pre-immunization serum
[2] = target: Escherichia coli heat-stable enterotoxin A (STa), purified from a bovine ETEC K99+ isolate (Escherichia coli (ETEC isolated from a diarrheic neonatal calf)); test: indirect ELISA on plate-bound STa, serum dilution 10^-5, pre-immunization serum
[3] = target: Escherichia coli heat-stable enterotoxin A (STa), purified from a bovine ETEC K99+ isolate (Escherichia coli (ETEC isolated from a diarrheic neonatal calf)); test: indirect ELISA on plate-bound STa, serum dilution 10^-4, pre-immunization serum
[4] = target: Escherichia coli heat-stable enterotoxin A (STa), purified from a bovine ETEC K99+ isolate (Escherichia coli (ETEC isolated from a diarrheic neonatal calf))
[5] = target: Escherichia coli heat-stable enterotoxin A (STa), purified from a bovine ETEC K99+ isolate (Escherichia coli (ETEC isolated from a diarrheic neonatal calf)); test: indirect ELISA on plate-bound STa, serum dilution 10^-3, pre-immunization serum
[6] = target: Escherichia coli heat-stable enterotoxin A (STa), purified from a bovine ETEC K99+ isolate (Escherichia coli (ETEC isolated from a diarrheic neonatal calf)); test: STa-binding indirect ELISA, end titer
[7] = target: Escherichia coli heat-stable enterotoxin A (STa), purified from a bovine ETEC K99+ isolate (Escherichia coli (ETEC isolated from a diarrheic neonatal calf)); test: avidity ELISA on plate-bound STa, 5 M ammonium thiocyanate, Baseline

In the case of “baseline (pre-immunization) rabbit serum (antibody)”, the mean OD (405 nm) [1] is reported as 0.039 OD, the mean OD (405 nm) [2] is reported as 0.033 OD and the mean OD (405 nm) [3] is reported as 0.232 OD. The Avidity Index (%) [4] was 4.7% and 3% and 0%, the mean OD (405 nm) [5] was 0.864 OD and the ELISA Titer (reciprocal serum dilution) [6] was 0. The OD at 405 nm with 5 M ammonium thiocyanate [7] was 0.017 OD and 0.043 OD and 0.04 OD.
